Measurements published in PMC10527606.

target: TNX-1500 (human); experiment: SPR

Row | Kd [nM] | Substance
1 | 8.7 | FcγRIa (from UniProt P12314 16-292) (receptor)
2 | 7100 | FcγRIIaH (from UniProt P12318 34-217) (receptor)

target: humanized 5c8 (hu5c8) (human (humanized antibody)); experiment: SPR

Row | Substance | Kd [nM]
3 | FcγRIIIaV (from UniProt P08637 17-208) (receptor) | 330
4 | FcγRIIaH (from UniProt P12318 34-217) (receptor) | 510
5 | FcγRIIbF (from UniProt P31994 43-217) (receptor) | 970

Second part, the substance after the results:

Row | Kd [nM] | Substance
6 | 0.033 | FcγRIa (from UniProt P12314 16-292) (receptor)
7 | 1700 | FcγRIIIaF (from UniProt P08637 17-208) (receptor)
